Measurements reported in patent US20240400657A1 (MorphoSys, published 2024).
Substitutions are numbered along the chain they refer to.

T1: human C5aR_NT-bio peptide (human, biotin tag (position not given))
T1 construct: Chemically synthesized linear peptide (Genscript); also called human C5aR N-terminal peptide; human C5aR peptide
T1 peptide: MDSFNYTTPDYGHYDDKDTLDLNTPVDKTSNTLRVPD

T2: full length human C5aR stably expressed on CHO Flp-In cells (human, UniProt P21730 1-350)
T2 construct: also called human C5aR expressed on CHO cells
T2 sequence: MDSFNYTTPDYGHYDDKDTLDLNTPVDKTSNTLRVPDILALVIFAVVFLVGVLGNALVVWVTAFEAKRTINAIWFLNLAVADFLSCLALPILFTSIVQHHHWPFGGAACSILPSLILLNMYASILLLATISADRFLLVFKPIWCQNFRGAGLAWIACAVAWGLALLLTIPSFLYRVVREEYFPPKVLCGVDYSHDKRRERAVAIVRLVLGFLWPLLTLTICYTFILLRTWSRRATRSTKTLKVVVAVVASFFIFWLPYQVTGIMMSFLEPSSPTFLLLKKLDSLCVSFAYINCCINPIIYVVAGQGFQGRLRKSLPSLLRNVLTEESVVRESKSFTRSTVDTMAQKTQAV

T3: full length cynomolgus C5aR stably expressed on CHO Flp-In cells (cynomolgus monkey (Macaca fascicularis))
T3 chain: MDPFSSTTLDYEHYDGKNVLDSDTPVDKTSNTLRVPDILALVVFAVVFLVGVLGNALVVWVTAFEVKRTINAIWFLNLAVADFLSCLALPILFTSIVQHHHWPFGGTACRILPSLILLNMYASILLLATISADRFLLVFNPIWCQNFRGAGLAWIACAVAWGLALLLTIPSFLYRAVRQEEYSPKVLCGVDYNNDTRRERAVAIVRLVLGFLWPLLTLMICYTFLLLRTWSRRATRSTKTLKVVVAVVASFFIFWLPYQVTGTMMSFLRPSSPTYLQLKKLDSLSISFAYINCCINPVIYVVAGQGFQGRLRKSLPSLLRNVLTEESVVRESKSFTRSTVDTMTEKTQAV

T4: C5aR expressed on purified human neutrophils (human, UniProt P21730 1-350)
T4 sequence (looked up): T2 sequence

B1: MAB #2 (antibody, human IgG1, lambda)
heavy: EVQLVESGGGLVKPGGSLRLSCAASGFTFSSYAMHWVRQAPGKGLEWVGRIKSVAQGGTTDYAAHVKGRFTISRDDSKNTLYLQMNSLKTEDTAVYYCARVSHSTFDVWGQGTLVTVSSASTKGPSVFPLAPSSKSTSGGTAALGCLVKDYFPEPVTVSWNSGALTSGVHTFPAVLQSSGLYSLSSVVTVPSSSLGTQTYICNVNHKPSNTKVDKRVEPKSCDKTHTCPPCPAPEAEGAPSVFLFPPKPKDTLMISRTPEVTCVVVDVSHEDPEVKFNWYVDGVEVHNAKTKPREEQYNSTYRVVSVLTVLHQDWLNGKEYKCKVSNKALPSSIEKTISKAKGQPREPQVYTLPPSREEMTKNQVSLTCLVKGFYPSDIAVEWESNGQPENNYKTTPPVLDSDGSFFLYSKLTVDKSRWQQGNVFSCSVMHEALHNHYTQKSLSLSPGK
light: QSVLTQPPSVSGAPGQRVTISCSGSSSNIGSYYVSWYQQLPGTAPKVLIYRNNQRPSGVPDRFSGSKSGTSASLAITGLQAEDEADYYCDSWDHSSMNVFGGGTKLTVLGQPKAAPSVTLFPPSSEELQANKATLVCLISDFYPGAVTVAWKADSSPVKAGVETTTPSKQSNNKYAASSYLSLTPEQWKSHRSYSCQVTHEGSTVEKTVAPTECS
notes: lambda 1 light chain
B2: MAB #1 (antibody, human IgG1, lambda)
heavy: B1 heavy with V54K, H103F
light: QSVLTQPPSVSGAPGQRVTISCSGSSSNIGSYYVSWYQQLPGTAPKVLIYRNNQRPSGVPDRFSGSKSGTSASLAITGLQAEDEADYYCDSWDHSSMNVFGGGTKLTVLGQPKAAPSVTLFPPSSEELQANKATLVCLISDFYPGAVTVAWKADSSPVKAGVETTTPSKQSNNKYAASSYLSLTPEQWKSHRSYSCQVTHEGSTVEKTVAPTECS
notes: lambda 1 light chain, VH3-15 framework

Legend:
[1] = target: T5, HIS6-mouse C5aR-HV1B1-GAG (mouse); assay: ELISA on coated VLPs, IgG titration
T5 construct: negative control; also called murine C5aR on VLPs; mouse C5aR expressed on virus-like-particles

[2] = target: T1, human C5aR_NT-bio peptide; assay: BLI (Octet), apparent (bivalent)
[3] = target: T6, Cynomolgus FcRn p51 [1-297]_AviHis/p14 biotinylated (cynomolgus monkey, UniProt Q8SPV9 24-298; Q6T672 21-119, biotinylated in vitro with BirA (Avi tag)); assay: BLI (Octet HTX), biotinylated FcRn on SA sensors, IgG titrated, steady state fit, apparent KD, pH 6.0; * deviation from fit model; pH 6.0
T6 construct: Heterodimer; UniProt Q8SPV9 (p51)
Description: (§1) 0.5 nm of biotinylated human, cynomolgus, mouse and rat FcRn were captured on streptavidin (SA) sensors (FortéBIO, Pall Life Sciences). […] All sensorgrams were fitted using Data Analysis Software 10.0 (FortéBIO, Pall Life Sciences) to determine the apparent affinity and the data was fitted with a steady state model.

[4] = target: T2, full length human C5aR stably expressed …; assay: KinExA, MAB #1 as analyte, Flp-In CHO cells as titrant, apparent (bivalent) KD, n-curve analysis
Protocol: (§2) Apparent KD determination on C5aR-expressing cells was performed at RT with a KinExA® 3200 instrument (Sapidyne Instruments). PBS (Gibco), supplemented with BSA (1 mg/mL) and 0.02% (v/v) NaN₃ was used as assay buffer. […] After equilibration, the samples were centrifuged and the supernatants were used for analysis. […] The apparent KD was obtained using KinExA® software and by “n-curve analysis,” which fits all of the given curves to a single KD value simultaneously.

[5] = target: T3, full length cynomolgus C5aR stably …; assay: as above
Protocol: as §2

[6] = target: T6, Cynomolgus FcRn p51 [1-297]_AviHis/p14 …; assay: BLI (Octet HTX), biotinylated FcRn on SA sensors, IgG titrated, steady state fit, apparent KD, pH 7.2; ** slight binding at pH 7.2
Description: as §1

[7] = target: T3, full length cynomolgus C5aR stably …; assay: KinExA on Flp-In CHO cells
Protocol: as §2

[8] = target: T5, HIS6-mouse C5aR-HV1B1-GAG; assay: ELISA, coated VLPs expressing mC5aR, IgG titration, AttoPhos fluorescence
[9] = target: T6, Cynomolgus FcRn p51 [1-297]_AviHis/p14 …; assay: BLI (Octet HTX), biotinylated FcRn on SA sensors, IgG titrated, steady state fit, apparent KD, pH 6.0; * deviation from fit model
Description: as §1

[10] = target: T4, C5aR expressed on purified human …; assay: cell-based or functional assay
[11] = target: T4, C5aR expressed on purified human …; assay: cell-based or functional assay; remark: listed apart in the source

Binder	binding result [1]	fold weaker binding affinity compared to MAB #1 [2] [fold]	Kd [3] [nM]	Kd [4] [nM]	Kd [5] [nM]	Kd [6] [nM]	fold weaker binding than to full-length human C5aR [7] [fold]	binding result [8]	Kd [9] [nM]	Inhibition of CD11b expression, granulocytes in whole blood, 15 nM C5a: IC50 [10] [nM]	Inhibition of CD11b expression, monocytes in whole blood, 15 nM C5a: IC50 [10] [nM]	CD11b assay, granulocytes, 15 nM C5a, 20 minutes of IgG incubation: IC50 [11] [nM]	CD11b assay, granulocytes, 15 nM C5a, 300 minutes of IgG incubation: IC50 [11] [nM]	CD11b assay, granulocytes: x-fold improvement (20 min. vs 300 min.) [11] [fold]	CD11b assay, monocytes, 15 nM C5a, 20 minutes of IgG incubation: IC50 [11] [nM]	CD11b assay, monocytes, 15 nM C5a, 300 minutes of IgG incubation: IC50 [11] [nM]	CD11b assay, monocytes: x-fold improvement (20 min. vs 300 min.) [11] [fold]
B1	no binding	~10	30	–	–	–	–	–	–	–	–	–	–	–	–	–	–
B2	–	–	–	0.13	2.98	560	~20	no binding (tested: ~300 nM)	6.8	9.8	4.2	11	2.3	4.8	4	0.7	5.7
